The text below walks through data of patent publication US20220111042A1, “MANF as a Regulator of Immune System Function” (University of Massachusetts, priority 2014, published 2022).

Experiment [1] has as its system MANF expression. The settings on record: mouse splenocytes treated with cyclophosphamide; cited from earlier work.
For experiment [2], the system named is DO 11.10 cells. Briefly: Dexamethasone dose-response for cell death of DO 11.10 cells. The experiment is classed as cell-based. Conditions: dose-response curve. How it is done: FIGS. 10A-B provides an analysis of MANF's ability to protect DO 11.10 cells from cell death caused by the glucocorticoid dexamethasone. […] DO 11.10 cells were pretreated for 24 hrs with MANF (dose shown; B) and then challenged with 100 nM dexamethasone to induce cell death. *p=0.003; **p=0.019.
(§1) Because MANF is expressed in T cells and is induced when they become activated, experiments were performed to determine whether MANF confers protection to these cells. A dose-response curve was generated with the glucocorticoid dexamethasone to determine the dose that results in ˜50% cell death (24 nM) (FIG. 10A). DO 11.10 cells were then pretreated for 24 hours with 0, 10 ng/mL, 100 ng/mL, 1 μg/mL, 10 μg/mL, or 50 μg/mL MANF before exposure to 100 nM dexamethasone to investigate a protective effect for MANF. […] These are key functional data.

Experiment [3] concerns MANF expression. The settings on record: male C57BL/6 B cells, B cell activation (CD40 at 65 nM); cited from earlier work.
In experiment [4] the test system is DO 11.10 cells. Briefly: Ara-C dose-response for cell death of DO 11.10 cells. Type of experiment: cell-based. Conditions: dose-response curve.
In experiment [5] the test system is MANF expression. The settings on record: immortalized B cells from 60 human individuals, tunicamycin to induce ER stress vs untreated; cited from earlier work.
Experiment [6] concerns DO 11.10 cells. Briefly: MANF pretreatment protecting DO 11.10 cells from dexamethasone induced cell death. Type of experiment: cell-based. Conditions: 24 hours pretreatment, then 100 nM dexamethasone. As for the experimental part: FIGS. 10A-B provides an analysis of MANF's ability to protect DO 11.10 cells from cell death caused by the glucocorticoid dexamethasone. […]. DO 11.10 cells were pretreated for 24 hrs with MANF (dose shown; B) and then challenged with 100 nM dexamethasone to induce cell death. *p=0.003; **p=0.019.
as §1

For experiment [7], the system named is midbrain dopaminergic neurons. The settings on record: primary nigral neuron cell cultures; cited from earlier work.
The subject of experiment [8] is DO 11.10 cells. Nature of the experiment: MANF pretreatment protecting DO 11.10 cells from Ara-C induced cell death. The experiment is classed as cell-based. Conditions: 1, 10, 100 ng/mL MANF, 24 hours pretreatment, then 10 μM Ara-C. From the text: FIGS. 11A-B provide an analysis of MANF's ability to protect DO 11.10 cells from cell death caused by the DNA damaging chemotherapeutic drug cytosine arabinoside (Ara-C). […].

Experiment [9] deals with KLH-specific IgM. Briefly: KLH-specific IgM ELISA after injection of mice with TNP-KLH/alum with MANF or PBS. Type of experiment: in vivo. Conditions: 8 week old male mice, i.p. 100 μg TNP-KLH with 5% alum plus 200 μL of 1 μg/μL MANF vs PBS; blood seven days later; p=0.0013. How it is done:
FIG. 5 provides an ELISA analysis of anti-KLH specific IgM titers between mice injected with 2,4,6, Trinitrophenyl hapten conjugated Keyhole Limpet Hemocyanin (TNP-KLH) and either 200 μL of 1 μg/μL MANF (KLH-MANF; right) or phosphate buffered saline (KLH-PBS; left). P=0.0013, Student's t-test.
Based on the expression in the non-germinal cells within the lymph nodes it was speculated that MANF might enhance antibody production and provide for faster and/or higher titers of antibodies following exposure to a novel antigen. To test this hypothesis, 8 week old male mice were injected intraperitoneally with 100 μg of sterile TNP-KLH (2,4,6, Trinitrophenyl hapten conjugated Keyhole Limpet Hemocyanin) with 5% alum in the presence of 200 μL of 1 μg/μL MANF or an equal volume of PBS. Blood was sampled via the submandibular vein seven days later and the KLH-specific IgM analyzed using an enzyme linked immunoassays (ELISA) from Life Diagnostics, Inc. The concentration was calculated from a standard curve. A Student's t-test was used to establish statistical significance (p=0.0013).

The test system of experiment [10] is dopaminergic neurons. Conditions: cited from earlier work.
Setting [11] is: injection of MANF into 6-OHDA treated rat brains.

Where two headings read alike, the source gives them in different places.

Take `O=P1(N(CCCl)CCCl)NCCCO1` (centres unmarked) [cyclophosphamide]: the MANF expression result in experiment [1] is given as “highly induced”.
Consider `C[C@@H]1C[C@H]2[C@@H]3CCC4=CC(=O)C=C[C@]4(C)[C@@]3(F)[C@@H](O)C[C@]2(C)[C@@]1(O)C(=O)CO` [dexamethasone], for which the “LD50 (dose that results in ~50% cell death)” value in experiment [2] worked out at 24 nM.
Regarding “B-cell activating factor: ligand used for B cell activation in ligand screen”, in experiment [3], the MANF expression result is listed as “dramatic, but transient, repression”.
For the molecule `Nc1ccn([C@@H]2O[C@H](CO)[C@@H](O)[C@@H]2O)c(=O)n1` [Ara-C, cytosine arabinoside], the “LD50 (dose that results in 50% cell death)” value in experiment [4] is about 5 µM.
Regarding tunicamycin, in experiment [5], the MANF expression result is recorded as “higher levels of MANF expression”.

B1: MANF: mesencephalic astrocyte-derived neurotrophic factor, an 18 kDa secreted protein; form used in the tests not stated (protein, UniProt P55145 25-182, looked up)
Mesencephalic …: LRPGDCEVCISYLGRFYQDLKDRDVTFSPATIENELIKFCREARGKENRLCYYIGATDDAATKIINEVSKPLAHHIPVEKICEKLKKKDSQICELKYDKQIDLSTVDLKKLRVKELKKILDDWGETCKGCAEKSDYIRKINELMPKYAPKAASARTDL
Regarding B1, the “protection against dexamethasone induced cell death” value in [6] (10 ng/mL MANF, p=0.003) is reported as “statistically significant, does-dependent protection”; in experiment [6] (100 ng/mL MANF, p=0.019), “statistically significant, does-dependent protection”; in experiment [6] (higher doses of MANF (1, 10, 50 μg/mL)) it was “No statistically significant effects”. Moreover, the “protection of dopaminergic neurons from death” value in [7] is listed as “protected these midbrain dopaminergic neurons from death”. Besides, the “protection against Ara-C induced cell death” value in experiment [8] is “dose-dependent protection”. The “levels of anti-KLH IgM antibodies” value in experiment [9] is “significantly increased”. Moreover, the “behavioral symptoms associated with the disorder” value in experiment [10] (setting [11]) is listed as “reduced the behavioral symptoms”. The “loss of dopaminergic neurons” value in experiment [10] (setting [11]) is “statistically significant reduction”. In experiment [10] (up to 4 weeks after 6-OHDA treatment), the “dopaminergic neuron survival and motor defects” value was “improve dopaminergic neuron survival and correct motor defects”.
